Where no end group is shown, it is not given here.
Assays:
[1] = target: hPTHR1-H223R (human) (UniProt Q03431); assay: cell-based or functional assay
[2] = target: human parathyroid hormone receptor 1 (hPTHR1) (human) (UniProt Q03431); assay: cell-based or functional assay
[3] = target: T1, human PTHR1-H223R (Homo sapiens, UniProt Q03431, H223R); assay: Inverse agonism on basal cAMP signaling in GHR-10 cells; assay type: cell-based; details: GHR-10 cells, from AUC, representative experiment
T1 construct: expressed in transfected cells; host or cells: GHR-10 (HEK-293 stably expressing GloSensor and PTHR1-H223R)
T1 sequence (Q03431 27-593 H223R): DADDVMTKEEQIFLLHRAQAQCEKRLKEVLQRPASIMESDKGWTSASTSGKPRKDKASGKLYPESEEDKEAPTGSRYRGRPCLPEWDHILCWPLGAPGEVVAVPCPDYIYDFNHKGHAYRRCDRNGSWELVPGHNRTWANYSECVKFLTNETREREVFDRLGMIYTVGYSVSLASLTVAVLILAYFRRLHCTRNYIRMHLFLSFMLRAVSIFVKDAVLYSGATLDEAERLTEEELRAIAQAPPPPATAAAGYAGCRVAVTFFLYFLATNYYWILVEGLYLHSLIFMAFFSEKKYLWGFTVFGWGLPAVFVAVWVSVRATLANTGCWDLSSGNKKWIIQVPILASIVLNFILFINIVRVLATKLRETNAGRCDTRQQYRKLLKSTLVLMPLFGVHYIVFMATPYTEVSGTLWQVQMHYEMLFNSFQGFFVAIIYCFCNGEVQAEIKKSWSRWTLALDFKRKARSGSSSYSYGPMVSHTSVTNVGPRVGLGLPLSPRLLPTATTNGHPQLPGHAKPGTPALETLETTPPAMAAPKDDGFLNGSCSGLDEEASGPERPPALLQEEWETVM
Procedure: cAMP signaling was assessed in the HEK293-derived or SaOS2-derived cell lines stably expressing the luciferase-based GloSensor™ cAMP reporter (Hattersley et al., Paper presented at: Novel Signaling Mechanisms and Bone Cell Biology 2014; Binkowski et al., Methods in molecular biology. 756:263-271). HEK-293 cells were further transfected to stably express the hPTHR1, hPTHR1-H223R, or hPTHR1-T410P. The cells were seeded into 96-well white plates and were assayed 24 to 48 hours post-confluency. Assays were performed at room temperature in CO2-independent culture media (Life Technologies, Corp., Carlsbad, Calif.) containing 0.1% BSA (CIDB). The cells were pre-loaded with luciferin (0.5 mM in CIDB) for 15 minutes, then PTH peptides were added at varying concentrations. cAMP-dependent luminescence was measured at two-minute intervals using a PerkinElmer Envision plate reader. The time at which maximum luminescence (cps) observed with agonist alone, typically at 10-20 minutes after agonist addition, was used to obtain data from wells containing antagonist with or without agonist, to thus generate antagonist ligand dose-response curves. The resulting cps values were then plotted against ligand concentration using GraphPad Prism 7.0 software and a four-parameter logistics curve fitting equation, which yielded parameters of inhibitory potency (pIC50).
These experiments were performed in HEK-293 cells stably transfected to express the GloSensor™ cAMP reporter along with a constitutively active mutant human PTHR1. The HEK-293 cells stably expressing GloSensor™ cAMP reporter along with a constitutively active mutant human PTHR1-H223R are GHR-10 cells. The HEK-293 cells stably expressing GloSensor™ cAMP reporter along with a constitutively active mutant human PTHR1-T410P are GTP-4 cells. The HEK-293 cells stably expressing GloSensor™ cAMP reporter along with a WT-PTHR1 are GP-2.3 cells. GP-2.3 cells were used as control. […] Effects on basal cAMP signaling over time were assessed during periods of direct ligand addition (FIGS. 15A-15F). The measurements were performed by recording GloSensor™ luminescence as counts per second (cps) using a PerkinElmer Envision plate reader. The data are illustrated in FIGS. 15A-15F. Data are from triplicate wells (means±SEM) of a single experiment representative of two others.
Persistence of the antagonist/inverse agonist effects (prolonged action) as follows. Effects of eight peptides on basal and PTH(1-34)-stimulated cAMP signaling by PTHR-H223R were assessed in GHR-10 cells (HEK-293-derived cells stably expressing glosensor cAMP reporter and PTHR1-H223R). Time courses of changes in cAMP levels were recorded in three consecutive phases:
1) after initial addition of a candidate antagonist/inverse agonist (1×10^−6 M-1×10^−9 M) to cells pre-loaded for […] with luciferin (left column);
2) after removal of unbound inverse agonist by extensive wash-out with buffer and replenishment with fresh luciferin-containing buffer (middle column); and
Control wells were treated with vehicle. GloSensor™ luminescence, as counts per second (cps), was recorded using a PerkinElmer Envision plate reader. Data are from duplicate wells (means±SEM) of a single experiment representative of two others. The results are illustrated in Table 7 and in FIGS. 16A-16C, 17A-17C, 18A-18C, 19A-19C, 20A-20C, 21A-21C, 22A-22C, and 23A-23C.
GHR10 cells were treated with vehicle or vehicle containing the indicated peptide for 24 minutes and cAMP-dependent luminescence was recorded at two-minute intervals. The cells were then washed to remove unbound ligand and media containing fresh luciferin was added, and cAMP luminescence was recorded for another 26 minutes. Percentage reduction was calculated from the area-under-the-curve (AUC) values derived from the time course plots using the equation: […]

Substance | Reduction of basal cAMP, % vehicle; After ligand washout; GHR-10 cells [1] [% vehicle] | Reduction of basal cAMP, % vehicle; Ligand @ -6M; GHR-10 cells [1] [% vehicle] | IC50, antagonism of PTH(1-34) (0.3 nM)-induced cAMP response, SGS-72 cells [2] [nM] | pIC50, antagonism of PTH(1-34) (0.3 nM)-induced cAMP response, SGS-72 cells [2] | Reduction of basal cAMP, % vehicle, After ligand washout ([3]; 26 minutes after washout of unbound ligand) [% vehicle] | Reduction of basal cAMP, % vehicle, Ligand @ −6M ([3]; peptide 1×10^−6 M for 24 minutes) [% vehicle]
L11, dW12, W23-LA-PTH(5-36)-2003 (peptide) | 64 | 66 | 2.57 | 8.59 -log M |  | 
L11, dW12, W23-LA-PTH(7-36)-2001 (peptide) | 65 | 66 | 2.08 | 8.68 -log M |  | 
dW12, W23-LA-PTH(7-36)-1990 (peptide) | 39 | 50 | 1.23 | 8.91 -log M |  | 

Second part, the substance after the results:

Reduction of basal cAMP, % vehicle; After ligand washout; GHR-10 cells [1] [% vehicle] | Reduction of basal cAMP, % vehicle; Ligand @ -6M; GHR-10 cells [1] [% vehicle] | IC50, antagonism of PTH(1-34) (0.3 nM)-induced cAMP response, SGS-72 cells [2] [nM] | pIC50, antagonism of PTH(1-34) (0.3 nM)-induced cAMP response, SGS-72 cells [2] | Reduction of basal cAMP, % vehicle, After ligand washout ([3]; 26 minutes after washout of unbound ligand) [% vehicle] | Reduction of basal cAMP, % vehicle, Ligand @ −6M ([3]; peptide 1×10^−6 M for 24 minutes) [% vehicle] | Substance
 |  |  |  | −49 | −15 | LA-PTH(5-36)-2012 (IQLMHQRAKWIQDARRRAFLHKLIAEIHTAEI-NH2) [compound 2012]
62 | 63 | 2.75 | 8.56 -log M |  |  | Nle8, L11, dW12, W23-LA-PTH(5-36)-1999 (peptide)
71 | 70 | 2.1 | 8.68 -log M |  |  | Nle8, L11, dW12, W23-LA-PTH(7-36)-1997 (peptide)
40 | 51 | 1.55 | 8.81 -log M |  |  | Nle8, dW12, W23-LA-PTH(7-36)-1992 (peptide)
